Assay results reported in patent publication US20080119432, “Inhibition Of Metallo-Beta-Lactamase By Rna” (published 2008).

Experiments:
[1] = target: T1, metallo-beta-lactamase (beta-lactamase II, 5/B/6) (Bacillus cereus 5/B/6, UniProt P14488 SEQ:2-228); test: inhibition; noncompetitive; Ki' (enzyme-substrate-inhibitor complex) 15 nM; cephalosporin C substrate, 50 mM MOPS pH 7.0, 30 C; settings: tags: expressed in E. coli TAP56 from pRE2/bla
T1 sequence: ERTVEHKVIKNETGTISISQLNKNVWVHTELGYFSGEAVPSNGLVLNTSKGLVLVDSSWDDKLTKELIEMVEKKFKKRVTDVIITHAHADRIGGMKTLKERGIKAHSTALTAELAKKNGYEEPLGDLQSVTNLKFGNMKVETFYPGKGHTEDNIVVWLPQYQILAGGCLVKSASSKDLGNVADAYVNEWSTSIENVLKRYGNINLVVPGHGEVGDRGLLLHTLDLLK

[2] = target: T1, metallo-beta-lactamase (beta-lactamase …); test: inhibition; 4.3 mM cephalosporin C, 50 mM MOPS pH 7.0, no added Zn; settings: tags: expressed in E. coli TAP56 from pRE2/bla

Work on UGGCUGCAGGGUCUGGCCCCCCGUUUGGUG (ssRNA) [30-mer RNA] yielded a Ki [1] of 2 nM and an IC50 [2] of 11 nM.
